Where a chain is given by its changes, count along the chain named. Names and notes keep the numbering of the source.
Experiments:
human c-Ret = human c-Ret (human, UniProt P07949 29-1114, phosphorylation at Y1016 is the readout); test: cell-based or functional assay
[1] = target: T1, Recombinant Human GFRα-1/GDNF Rα-1 Fc Chimera (human, UniProt P56159 25-429); test: ELISA, plate-bound human GFRα1-Fc; 4 C sample
T1 construct: Purchased Fc chimera; It was captured on protein A in Biacore and coated on the plate in ELISA; also called GFRα1-Fc; recombinant human GFRα1-Fc chimera, carrier-free; not shown: Fc part of a purchased Fc chimera
T1 sequence (looked up): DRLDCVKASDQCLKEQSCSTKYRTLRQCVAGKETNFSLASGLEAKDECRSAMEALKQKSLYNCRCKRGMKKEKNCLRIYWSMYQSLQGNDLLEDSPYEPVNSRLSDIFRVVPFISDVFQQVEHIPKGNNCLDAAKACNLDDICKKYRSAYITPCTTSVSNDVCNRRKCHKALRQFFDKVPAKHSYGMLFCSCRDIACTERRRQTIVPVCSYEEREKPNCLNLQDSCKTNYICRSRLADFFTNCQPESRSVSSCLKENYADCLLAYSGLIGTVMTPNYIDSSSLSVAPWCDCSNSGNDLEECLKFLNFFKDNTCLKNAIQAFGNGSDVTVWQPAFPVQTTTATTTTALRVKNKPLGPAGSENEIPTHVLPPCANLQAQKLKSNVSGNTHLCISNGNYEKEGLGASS
Protocol: GDNF wild type and variants are tested in an ELISA assay, in which binding of the GDNF proteins to the plate-bound receptor (GFRα1) is measured. A “no GDNF” condition and/or an “irrelevant protein” condition are used as negative controls.
(§1) Each well of a 96-well plate (Greiner 655081 Immunobind ELISA plates) is coated with 70 μl of human GFRα1 (recombinant human GFRα1-Fc chimera, carrier-free) at 1 μg/ml in carbonate buffer, pH 9.6. If an irrelevant receptor is coated, it is an irrelevant Fc chimera and is coated at the same concentration as GFRα1. The plates are sealed and incubated at 4° C. overnight. The wells are aspirated and washed twice with washing buffer (20 mM Tris (hydroxymethyl) aminomethane, pH 7.4, 0.15 M NaCl, 0.1% Tween-20), using an automatic plate washer. The plates are blocked with 200 μl blocking buffer per well (3% Carnation Instant milk in the above washing buffer) for at least 1 hour at room temperature. Plates are washed twice with washing buffer.
GDNF proteins are serially diluted into blocking buffer at an appropriate concentration range, typically beginning at 5 μg/ml and serially diluting 1:10. A no GDNF control is used, which consists of blocking buffer alone. 50 μl of each GDNF solution is added to the GFRα1 coated wells in triplicate. The plates are incubated for 1.5 hours at room temperature. The wells are then washed 3 times with washing buffer.

[2] = target: T1, Recombinant Human GFRα-1/GDNF Rα-1 Fc …; test: Biacore (SPR), GFRα-1; 4 C sample of the 4-week stability comparison
[3] = target: T1, Recombinant Human GFRα-1/GDNF Rα-1 Fc …; test: ELISA, plate-bound human GFRα1-Fc; lower end of the 95% confidence range, n = 8
Protocol: as §1, with “buffer. […]” for “buffer.”
(§2) A 50 μl aliquot of horseradish peroxidase-conjugated streptavidin (Jackson ImmunoResearch, catalog #016-030-084), diluted 1:1000 in blocking buffer, is added to each well and incubated for 20-30 minutes at room temperature. […] The absorbance of the wells is read at 490 nm on a Molecular Devices SpectraMax250 plate reader. The average absorbance for the triplicate wells for each condition are determined, and the resulting values are processed for EC₅₀ calculation with Graph Pad Prism software to provide a 95% confidence range.

[4] = target: T1, Recombinant Human GFRα-1/GDNF Rα-1 Fc …; test: ELISA, plate-bound human GFRα1-Fc; upper end of the 95% confidence range, n = 8
Protocol: as §1, with “buffer. […]” for “buffer.”
as §2

[5] = target: T2, Recombinant Human GFRα-2/GDNF Rα-2 Fc Chimera (human, UniProt O00451 22-441); test: SPR (Biacore 2000), human GFRα2-Fc captured on protein A, GDNF as analyte, 1:1 Langmuir, 25 C
T2 construct: Purchased Fc chimera; not shown: Fc part of a purchased Fc chimera
T2 sequence (looked up): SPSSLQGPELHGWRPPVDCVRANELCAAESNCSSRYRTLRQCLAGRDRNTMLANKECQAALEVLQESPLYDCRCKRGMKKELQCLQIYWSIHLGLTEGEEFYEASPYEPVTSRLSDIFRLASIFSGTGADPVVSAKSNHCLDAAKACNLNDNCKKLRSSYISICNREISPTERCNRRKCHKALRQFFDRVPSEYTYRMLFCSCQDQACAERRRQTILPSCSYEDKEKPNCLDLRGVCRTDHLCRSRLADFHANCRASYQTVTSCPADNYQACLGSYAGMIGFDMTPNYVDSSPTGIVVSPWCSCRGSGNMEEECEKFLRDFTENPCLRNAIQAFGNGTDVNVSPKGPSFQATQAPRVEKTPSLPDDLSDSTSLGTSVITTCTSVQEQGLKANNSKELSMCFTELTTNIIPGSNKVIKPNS
Protocol: (§3) A Biacore® 2000 instrument is used to measure the binding kinetics of GDNFv to human and rat GDNF family receptors (GFRα1 and GFRα2). Measurements are performed at 25° C. Samples are dissolved in HBS-EP buffer (150 mM sodium chloride, 3 mM EDTA, 0.005% (w/v) surfactant P-20, pH 7.4). Protein A, Staphylococcus aureus is immobilized on flow cells 1 to 4 of a CM4 sensor chip (GE Healthcare #BR-1005-39) at a level of ˜200 response units (RUs) using amine coupling chemistry to capture GFR Fc chimera (Recombinant Human GFRα-1/GDNF Rα-1 Fc Chimera; Recombinant Human GFRα-2/GDNF Rα-2 Fc Chimera; Recombinant Rat GFRα-1/GDNF Rα-1 Fc Chimera; Recombinant Mouse GFRα-2/GDNF Rα-2 Fc Chimera).
(§4) Binding is evaluated using multiple cycles. Each cycle consists of the following steps: 1) injection of about 10 μL of GFR at a concentration of ˜1.0 μg/mL and a flow rate of 10 μL/min., aiming at a capture of 120-150 RUs; 2) injection of 250 μL of GDNFv at a flow rate of 50 μL/min., in a final concentration rage between 10 nM and 0.04 nM followed by […]. for dissociation; and 3) regeneration using about 30 μL of 10 mM glycine hydrochloride, pH 1.5. Association and dissociation rates for each cycle are evaluated using a “1:1 (Langmuir) binding” model in the BIAevaluation software, version 4.1.

[6] = target: T1, Recombinant Human GFRα-1/GDNF Rα-1 Fc …; test: SPR (Biacore 2000), GFRα1-Fc captured on protein A, GDNF as analyte, 1:1 Langmuir, 25 C; in the presence of 400 mM NaCl
[7] = target: T1, Recombinant Human GFRα-1/GDNF Rα-1 Fc …; test: SPR (Biacore 2000), GFRα1-Fc captured on protein A, GDNFv as analyte, 1:1 Langmuir, 25 C
Protocol: as §3, §4

[8] = target: T3, Recombinant Rat GFRα-1/GDNF Rα-1 Fc Chimera (rat, UniProt Q62997 25-445); test: SPR (Biacore 2000), rat GFRα1-Fc captured on protein A, GDNFv as analyte, 1:1 Langmuir, 25 C
T3 construct: Purchased Fc chimera; not shown: Fc part of a purchased Fc chimera
T3 sequence (looked up): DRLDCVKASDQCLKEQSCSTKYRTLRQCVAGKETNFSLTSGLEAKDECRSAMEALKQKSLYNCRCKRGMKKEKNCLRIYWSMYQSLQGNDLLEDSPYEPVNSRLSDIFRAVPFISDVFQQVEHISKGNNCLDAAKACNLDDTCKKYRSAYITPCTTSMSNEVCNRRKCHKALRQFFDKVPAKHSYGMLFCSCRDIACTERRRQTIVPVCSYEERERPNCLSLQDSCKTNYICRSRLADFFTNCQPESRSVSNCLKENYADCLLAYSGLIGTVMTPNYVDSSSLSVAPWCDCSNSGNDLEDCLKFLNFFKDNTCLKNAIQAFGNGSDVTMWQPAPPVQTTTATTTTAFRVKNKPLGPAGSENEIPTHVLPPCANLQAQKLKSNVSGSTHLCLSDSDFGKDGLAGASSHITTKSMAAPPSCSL
Protocol: as §3, §4

[9] = target: T2, Recombinant Human GFRα-2/GDNF Rα-2 Fc …; test: SPR (Biacore 2000), human GFRα2-Fc captured on protein A, GDNFv as analyte, 1:1 Langmuir, 25 C
Protocol: as §3, §4

Chain of human c-Ret (P07949 29-1114): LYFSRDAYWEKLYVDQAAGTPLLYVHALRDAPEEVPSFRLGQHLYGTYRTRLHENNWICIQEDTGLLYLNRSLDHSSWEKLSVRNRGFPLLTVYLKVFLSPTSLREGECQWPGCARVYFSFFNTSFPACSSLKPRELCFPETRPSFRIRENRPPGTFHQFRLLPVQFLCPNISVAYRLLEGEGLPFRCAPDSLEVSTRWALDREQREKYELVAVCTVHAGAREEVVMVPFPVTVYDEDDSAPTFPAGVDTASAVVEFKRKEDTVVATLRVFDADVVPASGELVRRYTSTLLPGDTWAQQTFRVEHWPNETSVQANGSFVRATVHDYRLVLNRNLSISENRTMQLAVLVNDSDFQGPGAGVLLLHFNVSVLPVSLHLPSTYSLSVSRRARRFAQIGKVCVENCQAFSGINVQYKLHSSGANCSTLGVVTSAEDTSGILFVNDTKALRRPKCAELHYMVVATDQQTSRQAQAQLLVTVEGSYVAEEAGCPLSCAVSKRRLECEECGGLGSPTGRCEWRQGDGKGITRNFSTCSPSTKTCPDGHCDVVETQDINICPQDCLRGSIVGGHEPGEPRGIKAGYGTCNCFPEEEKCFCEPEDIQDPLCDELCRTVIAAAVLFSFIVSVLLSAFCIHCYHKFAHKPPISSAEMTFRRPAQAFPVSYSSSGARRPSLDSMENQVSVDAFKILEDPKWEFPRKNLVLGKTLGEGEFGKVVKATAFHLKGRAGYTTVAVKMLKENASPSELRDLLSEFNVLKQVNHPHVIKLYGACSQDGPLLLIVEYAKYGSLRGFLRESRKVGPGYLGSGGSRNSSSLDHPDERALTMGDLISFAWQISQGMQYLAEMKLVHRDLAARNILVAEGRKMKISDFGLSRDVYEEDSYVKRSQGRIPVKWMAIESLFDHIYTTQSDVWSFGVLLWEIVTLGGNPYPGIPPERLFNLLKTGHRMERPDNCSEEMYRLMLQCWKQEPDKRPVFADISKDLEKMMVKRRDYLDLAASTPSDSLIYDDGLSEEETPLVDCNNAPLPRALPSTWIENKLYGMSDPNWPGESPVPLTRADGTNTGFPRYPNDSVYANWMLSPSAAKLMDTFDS

B1: E. Coli-WT-GDNF (SEQ ID NO: 3) (ligand)
chain: MSPDKQMAVLPRRERNRQAAAANPENSRGKGRRGQRGKNRGCVLTAIHLNVTDLGLGYETKEELIFRYCSGSCDAAETTYDKILKNLSRNRRLVSDKVGQACCRPIAFDDDLSFLDDNLVYHILRKHSAKRCGCI
notes: Expressed in E. coli, not glycosylated; also called WT E. coli GDNF; WT-E. coli GDNF
B1 was tested. Which “c-Ret phosphorylation at Y1016, EC50” value (human c-Ret) did it give?
Its value is 0.008 to 0.015 µg/mL.

What about the EC50 [1] of the same binder?
The EC50 was 0.4 nM.

What about the Kd [2] of the same binder?
The Kd was 0.064 nM.

And the EC50 [3]?
The EC50 was 0.3 to 0.4 nM.

What about the EC50 [4] of the same binder?
The EC50 was 0.3 to 0.4 nM.

And the Kd [5]?
The Kd was 0.1 nM.

What about the koff [5] of the same binder?
Its koff is 0.00026 s⁻¹.

What about the kon [5] of the same binder?
Its kon is 2.4e+06 M⁻¹ s⁻¹.

What about the Kd [6] of the same binder?
The Kd was 0.064 nM.

What about the koff [6] of the same binder?
Its koff is 0.00035 s⁻¹.

And the kon [6]?
The kon was 6e+06 M⁻¹ s⁻¹.

B2: E. coli-Δ31-N38Q-D95E-GDNF (SEQ ID NO: 9) (ligand)
chain: RGQRGKQRGCVLTAIHLNVTDLGLGYETKEELIFRYCSGSCDAAETTYDKILKNLSRNRRLVSEKVGQACCRPIAFDDDLSFLDDNLVYHILRKHSAKRCGCI
notes: also called GDNF variant 2; clone D9
Which Kd [7] does the source give for B2 here?
Its Kd is 0.047 nM.

And the koff [7]?
The koff was 0.00016 s⁻¹.

What about the kon [7] of the same binder?
The kon was 3.9e+06 M⁻¹ s⁻¹.

B3: CHO Δ31-N38Q-K84A-R88K-R90K-D95E-K125E-R130E GDNF (SEQ ID NO: 15) (ligand)
chain: B2 chain with K53A, R57K, R59K, K94E, R99E
For B3, which “c-Ret phosphorylation at Y1016, EC50” value (human c-Ret) is on record?
Its value is 0.008 to 0.015 µg/mL.

B4: E. Coli-Δ31-GDNF (SEQ ID NO: 8) (ligand)
chain: B2 chain with Q7N, E64D
notes: The NdeI start codon encodes a Met before R32; also called Delta-31 GDNF; Variant 1
B4 was tested. Which Kd [7] did it give?
The Kd was 0.044 nM.

What about the koff [7] of the same binder?
The koff was 0.00017 s⁻¹.

And the kon [7]?
The kon was 4.2e+06 M⁻¹ s⁻¹.

B5: E. Coli-Δ31-N38Q-K84A-R88K-R90K-D95E-GDNF (SEQ ID NO: 12) (ligand)
chain: B2 chain with K53A, R57K, R59K
notes: also called Δ31-N38Q-KAKKE; GDNF variant 3
With B5 as the binder, how does the Kd [7] read?
Its Kd is 0.035 nM.

And the koff [7]?
The koff was 0.00016 s⁻¹.

What about the kon [7] of the same binder?
The kon was 5e+06 M⁻¹ s⁻¹.

B6: CHO-Δ31-N38Q-K84A-R88K-R90K-D95E-GDNF (SEQ ID NO: 12) (ligand)
chain: B2 chain with K53A, R57K, R59K
modifications: N-glycosylated at N49 (numbering of mature GDNF)
notes: Expressed in CHO cells; also called Δ31-N38Q-KAKKE; GDNF variant 3
With B6 as the binder, how does the “c-Ret phosphorylation at Y1016, EC50” value (human c-Ret) read?
The value was 0.008 to 0.015 µg/mL.

And the Kd [2]?
The Kd was 0.029 nM.

What about the Kd [7] of the same binder?
The Kd was 0.029 nM.

And the koff [7]?
Its koff is 0.00014 s⁻¹.

And the kon [7]?
The kon was 6.2e+06 M⁻¹ s⁻¹.

And the Kd [8]?
The Kd was 0.021 nM.

What about the koff [8] of the same binder?
The koff was 0.00021 s⁻¹.

And the kon [8]?
The kon was 9.9e+06 M⁻¹ s⁻¹.

What about the Kd [9] of the same binder?
The Kd was 0.044 nM.

What about the koff [9] of the same binder?
Its koff is 0.00042 s⁻¹.

What about the kon [9] of the same binder?
The kon was 9.6e+06 M⁻¹ s⁻¹.
